Assay results: US20190382503A1 (published 2019)

T1: cynomolgus 5T4 on cells (cynomolgus macaque, UniProt Q4R8Y9 35-420)
T1 construct: whole, on cells; also called CHO-K1/cynomolgus 5T4
T1 sequence (looked up): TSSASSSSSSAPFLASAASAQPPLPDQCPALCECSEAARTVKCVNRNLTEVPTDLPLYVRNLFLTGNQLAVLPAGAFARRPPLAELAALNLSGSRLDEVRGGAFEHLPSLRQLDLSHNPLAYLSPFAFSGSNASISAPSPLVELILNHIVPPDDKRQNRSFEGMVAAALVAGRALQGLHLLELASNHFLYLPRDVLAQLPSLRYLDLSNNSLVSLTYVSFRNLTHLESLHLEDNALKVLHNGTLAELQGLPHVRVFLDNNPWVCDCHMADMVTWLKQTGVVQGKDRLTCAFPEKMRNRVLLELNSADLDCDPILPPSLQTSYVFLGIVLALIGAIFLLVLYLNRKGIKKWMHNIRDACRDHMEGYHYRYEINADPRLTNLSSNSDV

T2: recombinant human 5T4 extracellular domain (human, UniProt Q13641 32-355)
T2 construct: The entry starts at Met 1; also called Hu 5T4; 5T4 ECD
T2 sequence: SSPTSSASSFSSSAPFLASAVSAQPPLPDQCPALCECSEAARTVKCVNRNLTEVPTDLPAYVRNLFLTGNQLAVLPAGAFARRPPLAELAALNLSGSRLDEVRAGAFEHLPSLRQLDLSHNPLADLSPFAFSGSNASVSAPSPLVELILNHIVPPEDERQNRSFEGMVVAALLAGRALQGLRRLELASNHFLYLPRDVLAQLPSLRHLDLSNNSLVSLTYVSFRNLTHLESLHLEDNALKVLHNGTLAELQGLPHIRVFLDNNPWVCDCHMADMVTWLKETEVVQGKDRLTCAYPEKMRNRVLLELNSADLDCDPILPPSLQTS

T3: human 5T4 on cells (human, UniProt Q13641 32-420)
T3 construct: Human 5T4 on transfected cells (CHO-K1, CT26, B16) or endogenous on human tumour lines; the cell line is named under assay; also called trophoblast glycoprotein; TPBG
T3 sequence: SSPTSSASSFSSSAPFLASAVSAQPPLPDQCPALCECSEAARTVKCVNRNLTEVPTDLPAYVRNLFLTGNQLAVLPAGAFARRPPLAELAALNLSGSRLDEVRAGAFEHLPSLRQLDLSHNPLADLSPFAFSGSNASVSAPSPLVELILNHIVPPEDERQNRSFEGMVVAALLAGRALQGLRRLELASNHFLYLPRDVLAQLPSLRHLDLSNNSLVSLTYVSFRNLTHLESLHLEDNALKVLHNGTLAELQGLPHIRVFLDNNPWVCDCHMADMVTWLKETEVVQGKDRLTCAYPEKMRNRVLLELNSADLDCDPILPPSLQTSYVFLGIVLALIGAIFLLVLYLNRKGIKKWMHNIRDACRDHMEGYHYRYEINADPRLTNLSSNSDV


Key:
cynomolgus 5T4 on cells [1] = target: T1, cynomolgus 5T4 on cells; assay: flow cytometry, CHO-K1/cynomolgus 5T4 transfectants (FIG. 14)
Method: (§1) Binding studies were performed by standard flow cytometry-based staining procedures two cell lines expressing 5T4:CHO-K1 cells (obtained from Alligator) transduced with human or cynomolgus macaque 5T4 and SKOV-3 human ovarian adenocarcinoma cells which express (human) 5T4. All labeling and washes were performed in U-bottom 96-well plates in saline buffer with 0.1% BSA and 2 mM EDTA. Cell were plated at approximately 100,000 cells per well and incubated with a range of 100 nM to 0.05 nM concentrations of test molecules in 50 μL volume/well, for 30 minutes on ice. Cells were washed three times then incubated for another 30 min on ice with fluorescently-labeled secondary polyclonal antibody, F(ab′)² goat anti-human IgG (Jackson ImmunoResearch Laboratories). The cells were then washed twice and the samples acquired in a BD LSRII or a Symphony A3 flow cytometer. The sample files were analyzed using FlowJo software; the mean fluorescence intensity (MFI-mean) or median fluorescence intensity (MFI-median) of the live population of cells in each well was calculated after gating on live cells (forward vs side scatter). Nonlinear regression analysis to determine EC₅₀ values was performed in GraphPad Prism 6® graphing and statistics software.
All the constructs bound with EC₅₀ values in the range of 1 to 3 nM. […]

[2] = target: T4, recombinant human CD137 extracellular domain (human, UniProt Q07011 24-186); assay: SPR, Biacore T200, bispecific captured by anti-human IgG, monomeric ECD injected, 1:1 model
T4 construct: The entry starts at Met 1; also called Hu CD137; 4-1BB ECD
Method: (§2) Goat anti-human IgG F(ab′)2 fragment (Jackson ImmunoResearch) at 20 μg/mL in 10 mM sodium acetate (pH 4.5) was immobilized at a density of 2000 response units (RU) onto the flow cell of a CM5 research-grade sensor chip (GE) by standard amine coupling chemistry. Each bispecific variant at 200 nM in HBS-EP+ buffer was captured in the flow cell with the immobilized anti-human IgG at a flow rate of 50 μL/min for 60 sec to reach ˜500 RU response, leaving one flow cell surface unmodified as the reference. Following a 30 sec stabilization period, four different concentrations of each ECD (0, 20, 60, and 180 nM) were injected at 50 μL/min for either 120 sec followed by a 240 sec dissociation period (for 5T4) or 90 sec followed by a 180 sec dissociation period (for 4-1BB). Regeneration was achieved by duplicate injections of 10 mM glycine (pH 1.5) at a flow rate of 50 μL/min for 30 sec followed by HBS-EP+ buffer stabilization for 1 min.
(§3) Sensorgrams obtained from kinetic SPR measurements were analyzed by the double subtraction method. The signal from the reference flow cell was subtracted from the analyte binding response obtained from flow cells with immobilized or captured ligands. Buffer reference responses were then averaged from multiple injections. The averaged buffer reference responses were then subtracted from analyte binding responses, and the final double-referenced data were analyzed with Biacore T200 Evaluation software (2.0, GE), globally fitting data to derive kinetic parameters. All sensorgrams were fitted using a simple one-to-one binding model.

[3] = target: T2, recombinant human 5T4 extracellular …; assay: as above
Method: as §2, §3

[4] = target: T5, CD137 / 4-1BB (soluble antigen, form not stated) (UniProt Q07011 24-186, limits assumed); assay: ELISA
T5 construct: also called biotinylated 4-1BB antigen; CD137 in ELISA

cynomolgus 5T4 on cells [5] = target: T1, cynomolgus 5T4 on cells; assay: flow cytometry, CHO-K1/cynomolgus 5T4 transfectants (FIG. 7)
Method: as §1

human 5T4 on cells = target: T3, human 5T4 on cells; assay: flow cytometry, SKOV-3 cells (FIG. 6)
Method: as §1
The differences in EC₅₀ values between constructs were more evident when binding assays were conducted on SKOV-3 cells. […]

Row | binding result (cynomolgus 5T4 on cells [1]) | Kd [2] [nM] | koff [2] [s⁻¹] | kon [2] [M⁻¹ s⁻¹] | Kd [3] [nM] | koff [3] [s⁻¹] | kon [3] [M⁻¹ s⁻¹] | EC50 [4] [nM] | binding result (cynomolgus 5T4 on cells [5]) | binding result (human 5T4 on cells) | Binder
1 | binds | 59 | 0.033 | 550000 | 79 | 0.0012 | 15000 | 0.7 | – | – | ALG.APV-210 (bispecific antibody, scFv-Fc-scFv (ADAPTIR) homodimer with stabilizing disulfide in the 1210 scFv; also called ALG.APV-223; 5T4-CD137 bispecific antibody) EVQLLESGGGLVQPGGSLRLSCAASGFTFSHGSMYWVRQAPGKGLEWVSSISSGSGSTYYADSVKGRFTISHDNSKNTLYLQMNSLRAEDTAVYYCARSSYYGSYYSIDYWGQGTLVTVSSGGGGSGGGGSGGGGSGGGGSDIQMTQSPSSLSASVGDRVTITCRASQSISSYLNWYQQKPGKAPKLLIYAASSLQSGVPSRFSGSGSGTDFTLTISSLQPEDFATYYCQQYYDNLPTFGQGTKLEIKEPKSSDKTHTCPPCPAPEAAGAPSVFLFPPKPKDTLMISRTPEVTCVVVDVSHEDPEVKFNWYVDGVEVHNAKTKPREEQYNSTYRVVSVLTVLHQDWLNGKEYKCAVSNKALPAPIEKTISKAKGQPREPQVYTLPPSRDELTKNQVSLTCLVKGFYPSDIAVEWESNGQPENNYKTTPPVLDSDGSFFLYSKLTVDKSRWQQGNVFSCSVMHEALHNHYTQKSLSLSPGSGGGGSGGGGSGGGGSPSEVQLLESGGGLVQPGGSLRLSCAASGFTFSSYAMSWVRQAPGKCLEWVSAISGSGGSTYYADSVKGRFTISRDNSKNTLYLQMNSLRAEDTAVYYCARYYGGYYSAWMDYWGQGTLVTVSSGGGGSGGGGSGGGGSGGGGSDIQMTQSPSSLSASVGDRVTITCRASQSISSFLNWYQQKPGKAPKLLIYAASSLQSGVPSRFSGSGSGTDFTLTISSLQPEDSATYYCQQTYGYLHTFGCGTKLEIKR
2 | – | 73 | 0.027 | 370000 | 35 | 0.00072 | 21000 | – | binds | – | ALG.APV-187 (bispecific antibody, scFv-Fc-scFv (ADAPTIR) homodimer with stabilizing disulfide in the 1210 scFv) EVQLLESGGGLVQPGGSLRLSCAASGFTFSHGSMYWVRQAPGKGLEWVSSISSGSGSTYYADSVKGRFTISHDNSKNTLYLQMNSLRAEDTAVYYCARSSYYGSYYSIDYWGQGTLVTVSSGGGGSGGGGSGGGGSGGGGSDIQMTQSPSSLSASVGDRVTITCRASQSISSYLNWYQQKPGKAPKLLIYAASSLQSGVPSRFSGSGSGTDFTLTISSLQPEDFATYYCQQYYDNLPTFGQGTKLEIKSSEPKSSDKTHTCPPCPAPEAAGAPSVFLFPPKPKDTLMISRTPEVTCVVVDVSHEDPEVKFNWYVDGVEVHNAKTKPREEQYNSTYRVVSVLTVLHQDWLNGKEYKCAVSNKALPAPIEKTISKAKGQPREPQVYTLPPSRDELTKNQVSLTCLVKGFYPSDIAVEWESNGQPENNYKTTPPVLDSDGSFFLYSKLTVDKSRWQQGNVFSCSVMHEALHNHYTQKSLSLSPGSGGGGSGGGGSGGGGSPSEVQLLESGGGLVQPGGSLRLSCAASGFTFSSYAMSWVRQAPGKCLEWVSAISGSGGSTYYADSVKGRFTISRDNSKNTLYLQMNSLRAEDTAVYYCARYYGGYYSAWMDYWGQGTLVTVSSGGGGSGGGGSGGGGSGGGGSDIQMTQSPSSLSASVGDRVTITCRASQSISSFLNWYQQKPGKAPKLLIYAASSLQSGVPSRFSGSGSGTDFTLTISSLQPEDSATYYCQQTYGYLHTFGCGTKLEIKR
3 | – | – | – | – | – | – | – | – | binds | binds | ALG.APV-196 (bispecific antibody, scFv-Fc-scFv (ADAPTIR) homodimer) EVQLLESGGGLVQPGGSLRLSCAASGFTFSYGSMYWVRQAPGKGLEWVSSISSGSGSTYYADSVKGRFTISHDNSKNTLYLQMNSLRAEDTAVYYCARSSYYGSYYSIDYWGQGTLVTVSSGGGGSGGGGSGGGGSGGGGSDIQMTQSPSSLSASVGDRVTITCRASQSISSYLNWYQQKPGKAPKLLIYAASSLQSGVPSRFSGSGSGTDFTLTISSLQPEDFATYYCQQYYDNLPTFGQGTKLEIKSSEPKSSDKTHTCPPCPAPEAAGAPSVFLFPPKPKDTLMISRTPEVTCVVVDVSHEDPEVKFNWYVDGVEVHNAKTKPREEQYNSTYRVVSVLTVLHQDWLNGKEYKCAVSNKALPAPIEKTISKAKGQPREPQVYTLPPSRDELTKNQVSLTCLVKGFYPSDIAVEWESNGQPENNYKTTPPVLDSDGSFFLYSKLTVDKSRWQQGNVFSCSVMHEALHNHYTQKSLSLSPGSGGGGSGGGGSGGGGSPSEVQLLESGGGLVQPGGSLRLSCAASGFDFESYAMSWVRQAPGKCLEWVSAISGSGGSTYYADSVKGRFTISRDNSKNTLYLQMNSLRAEDTAVYYCARYYGGYYSAWMDYWGQGTLVTVSSGGGGSGGGGSGGGGSGGGGSDIQMTQSPSSLSASVGDRVTITCRASQSIRSALNWYQQKPGKAPKLLIYAASSLQSGVPSRFSGSGSGTDFTLTISSLQPEDFATYYCQQTYGYLHTFGCGTKLEIKR
4 | – | – | – | – | – | – | – | – | binds | binds | ALG.APV-198 (bispecific antibody, scFv-Fc-scFv (ADAPTIR) homodimer) EVQLLESGGGLVQPGGSLRLSCAASGFTFSHGSMYWVRQAPGKGLEWVSSISSGSGSTYYADSVKGRFTISHDNSKNTLYLQMNSLRAEDTAVYYCARSSYYGSYYSIDYWGQGTLVTVSSGGGGSGGGGSGGGGSGGGGSDIQMTQSPSSLSASVGDRVTITCRASQSISSYLNWYQQKPGKAPKLLIYAASSLQSGVPSRFSGSGSGTDFTLTISSLQPEDFATYYCQQYYDNLPTFGQGTKLEIKSSEPKSSDKTHTCPPCPAPEAAGAPSVFLFPPKPKDTLMISRTPEVTCVVVDVSHEDPEVKFNWYVDGVEVHNAKTKPREEQYNSTYRVVSVLTVLHQDWLNGKEYKCAVSNKALPAPIEKTISKAKGQPREPQVYTLPPSRDELTKNQVSLTCLVKGFYPSDIAVEWESNGQPENNYKTTPPVLDSDGSFFLYSKLTVDKSRWQQGNVFSCSVMHEALHNHYTQKSLSLSPGSGGGGSGGGGSGGGGSPSEVQLLESGGGLVQPGGSLRLSCAASGFDFESYAMSWVRQAPGKCLEWVSAISGSGGSTYYADSVKGRFTISRDNSKNTLYLQMNSLRAEDTAVYYCARYYGGYYSAWMDYWGQGTLVTVSSGGGGSGGGGSGGGGSGGGGSDIQMTQSPSSLSASVGDRVTITCRASQSIRSALNWYQQKPGKAPKLLIYAASSLQSGVPSRFSGSGSGTDFTLTISSLQPEDFATYYCQQTYGYLHTFGCGTKLEIKR
